Data: publication doi:10.1101/2020.02.11.944678

Target: Fibronectin (FN) from human plasma (human) (UniProt P02751)
UniProt P02751, sequence (P02751 32-2477): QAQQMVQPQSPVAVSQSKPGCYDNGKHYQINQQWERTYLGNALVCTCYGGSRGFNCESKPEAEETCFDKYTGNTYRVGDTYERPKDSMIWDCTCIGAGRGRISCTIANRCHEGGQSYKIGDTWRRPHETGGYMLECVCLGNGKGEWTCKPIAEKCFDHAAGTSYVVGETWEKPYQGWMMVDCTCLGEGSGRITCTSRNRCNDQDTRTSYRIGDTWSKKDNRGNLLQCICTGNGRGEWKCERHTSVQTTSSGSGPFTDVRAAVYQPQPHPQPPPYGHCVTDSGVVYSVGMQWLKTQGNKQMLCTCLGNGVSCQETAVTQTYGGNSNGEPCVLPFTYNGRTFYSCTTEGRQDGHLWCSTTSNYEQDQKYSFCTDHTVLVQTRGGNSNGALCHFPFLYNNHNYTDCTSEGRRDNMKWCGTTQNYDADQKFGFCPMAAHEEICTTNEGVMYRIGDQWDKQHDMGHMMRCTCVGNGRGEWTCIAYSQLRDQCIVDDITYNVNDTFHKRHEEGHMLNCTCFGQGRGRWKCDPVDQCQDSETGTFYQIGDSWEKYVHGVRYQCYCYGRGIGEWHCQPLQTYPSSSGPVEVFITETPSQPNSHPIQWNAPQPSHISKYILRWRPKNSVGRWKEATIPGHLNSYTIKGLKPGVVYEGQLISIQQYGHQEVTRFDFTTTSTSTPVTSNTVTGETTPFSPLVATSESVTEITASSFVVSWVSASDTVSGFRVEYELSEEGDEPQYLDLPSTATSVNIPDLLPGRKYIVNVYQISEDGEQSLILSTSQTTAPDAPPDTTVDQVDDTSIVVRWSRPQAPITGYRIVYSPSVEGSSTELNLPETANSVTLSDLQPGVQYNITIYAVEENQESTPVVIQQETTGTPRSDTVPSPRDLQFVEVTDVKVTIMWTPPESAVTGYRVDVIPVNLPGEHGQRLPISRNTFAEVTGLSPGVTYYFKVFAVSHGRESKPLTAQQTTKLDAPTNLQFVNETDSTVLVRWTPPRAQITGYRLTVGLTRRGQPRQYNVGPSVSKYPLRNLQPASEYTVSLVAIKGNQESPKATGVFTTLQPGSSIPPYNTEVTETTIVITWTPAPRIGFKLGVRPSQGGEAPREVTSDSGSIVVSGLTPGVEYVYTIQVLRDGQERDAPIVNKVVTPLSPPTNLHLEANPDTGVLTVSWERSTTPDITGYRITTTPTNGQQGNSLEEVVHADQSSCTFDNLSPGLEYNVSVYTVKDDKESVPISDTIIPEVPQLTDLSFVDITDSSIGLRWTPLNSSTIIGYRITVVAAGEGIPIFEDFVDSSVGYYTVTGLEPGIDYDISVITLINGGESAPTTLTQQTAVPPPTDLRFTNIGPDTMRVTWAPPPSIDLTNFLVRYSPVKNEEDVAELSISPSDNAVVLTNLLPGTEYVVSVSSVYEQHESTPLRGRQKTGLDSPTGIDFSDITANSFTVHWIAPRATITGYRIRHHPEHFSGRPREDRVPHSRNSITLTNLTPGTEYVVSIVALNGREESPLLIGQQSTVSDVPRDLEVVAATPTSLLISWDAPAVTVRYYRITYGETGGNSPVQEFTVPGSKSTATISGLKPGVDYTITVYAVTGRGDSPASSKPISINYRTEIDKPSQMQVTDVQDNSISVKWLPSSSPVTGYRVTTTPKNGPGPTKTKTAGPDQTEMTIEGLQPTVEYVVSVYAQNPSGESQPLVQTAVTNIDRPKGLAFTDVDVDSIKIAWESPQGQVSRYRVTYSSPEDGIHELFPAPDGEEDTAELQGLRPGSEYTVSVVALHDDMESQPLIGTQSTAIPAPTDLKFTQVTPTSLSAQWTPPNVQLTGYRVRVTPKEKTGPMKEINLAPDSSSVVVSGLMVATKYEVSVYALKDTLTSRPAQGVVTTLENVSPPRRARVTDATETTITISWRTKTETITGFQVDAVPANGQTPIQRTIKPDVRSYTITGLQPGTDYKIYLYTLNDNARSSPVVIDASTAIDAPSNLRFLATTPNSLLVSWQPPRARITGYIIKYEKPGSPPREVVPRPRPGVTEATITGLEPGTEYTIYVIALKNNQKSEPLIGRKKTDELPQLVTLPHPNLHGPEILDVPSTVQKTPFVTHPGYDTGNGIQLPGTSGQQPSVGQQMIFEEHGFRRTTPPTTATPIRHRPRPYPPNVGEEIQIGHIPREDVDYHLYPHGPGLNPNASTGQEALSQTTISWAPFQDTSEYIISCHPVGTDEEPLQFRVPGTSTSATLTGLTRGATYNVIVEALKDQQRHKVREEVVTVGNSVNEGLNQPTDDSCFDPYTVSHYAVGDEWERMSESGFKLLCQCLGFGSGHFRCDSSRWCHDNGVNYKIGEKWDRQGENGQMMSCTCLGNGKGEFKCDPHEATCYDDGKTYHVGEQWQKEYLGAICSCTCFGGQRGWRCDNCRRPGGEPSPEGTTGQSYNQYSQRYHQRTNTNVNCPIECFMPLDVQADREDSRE

fold more bead attachment on FN-coated GO than on FN-coated RGO: 5 fold
Substance: Recombinant human αVβ3 integrin (from UniProt P06756;P05106) (receptor)
